For eleven molecules, EC50 and Max results are on record in patent US20250215083A1 (JIANGSU HENGRUI PHARMACEUTICALS, published 2025).

The target in one test is T1, human GPRC5D (human, UniProt Q9NZD1 1-345).
T1 construct: whole, on cells; also called membrane surface GPRC5D
Nature of the test: FACS, MM.1R cells. On the procedure:
(§1) To test the capacity of the GPRC5D/CD3 bispecific antibodies of the present disclosure to bind to GPRC5D, a flow cytometry assay was used in this test example to measure the capacity of the GPRC5D/CD3 bispecific antibodies to bind to the human multiple myeloma cell line MM.1R (ATCC® CRL-2975), which expresses GPRC5D, and to a stably transfected cell strain CHOK1-cynoGPRC5D, which expresses cynomolgus monkey GPRC5D. The specific procedure was as follows: The cells described above were cultured in complete culture medium containing 10% FBS, incubated in a 37° C., 5% CO₂ incubator for 2 days, and added to a cell plate at 1×10⁵ cells/well. The plate was centrifuged at 300 g for 5 min and washed once with 1% BSA. The antibodies were serially diluted to 8 concentrations and added to the cell plate at 100 μL/well. The plate was incubated at 4° C. for 1 h and washed once with 1% BSA. […] The plate was washed three times with 1% BSA, PBS was added at 100 μL/well, and plate reading was performed.

The next test addresses T2, cynomolgus monkey GPRC5D (cynomolgus monkey).
T2 construct: whole, on cells; also called CynoGPRC5D; cynoGPRC5D
As to the kind of experiment: FACS, CHOK1-cynoGPRC5D cells. On the procedure: as §1
In general terms: Flow cytometry measures light scatter and fluorescence of single cells or particles in a stream.

T1 sequence (Q9NZD1 whole entry): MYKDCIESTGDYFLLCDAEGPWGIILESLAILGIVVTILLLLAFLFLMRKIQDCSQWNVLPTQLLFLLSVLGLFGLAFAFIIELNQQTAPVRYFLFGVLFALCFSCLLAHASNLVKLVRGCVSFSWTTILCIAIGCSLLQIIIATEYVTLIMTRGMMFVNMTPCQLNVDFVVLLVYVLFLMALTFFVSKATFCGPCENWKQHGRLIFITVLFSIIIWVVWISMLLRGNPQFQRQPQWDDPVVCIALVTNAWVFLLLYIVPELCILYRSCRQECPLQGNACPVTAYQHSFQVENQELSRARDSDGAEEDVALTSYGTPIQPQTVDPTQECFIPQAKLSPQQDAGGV

B1: Chi-30 (antibody, human IgG1, kappa, L234A L235A, V domains shown)
VH: EVQLQQSGPELVKPGGSMKISCKASGYSFTGYTMNWVKQSHGKNPEWIGLINPYNGGTRNNQKFKDKATLTVDKSSSTAYMELLSLTSEDSAVYYCTRWGLRLAMDYWGQGTSVTVSS
VL: DIVMTQSQKFMSTSVGDRVSVTCKASQNVGSNVAWYQQKPGQSPKALIYSASYRYSGVPDRFTGSGSGTDFTLTISNVQSEDLAEYFCHQYNSYPPTFGAGTKLALKR
As for B1, in the test with human GPRC5D, the midpoint of the response, the EC50, lay at 0.46 nM and the Max was 2100. For the same molecule, in the test with cynomolgus monkey GPRC5D, the midpoint of the response, the EC50, lay at 1.57 nM and the Max turned out to be 7940.

B2: F11-19 (bispecific antibody)
heavy: not shown
light: DIVMTQSQKFMSTSVGDRVSVTCKASQNVGSNVAWYQQKPGQSPKALIYSASYRYSGVPDRFTGSGSGTDFTLTISNVQSEDLAEYFCHQYNSYPPTFGAGTKLALKRTVAAPSVFIFPPSDEQLKSGTASVVCLLNNFYPREAKVQWKVDNALQSGNSQESVTEQDSKDSTYSLSSTLTLSKADYEKHKVYACEVTHQGLSSPVTKSFNRGEC
notes: formula 11 with Chi-30 variable regions
B2: in the test with human GPRC5D, the EC50 (in general, the midpoint of the concentration-response curve) was determined as 1.32 nM and the Max was found to be 1140. In the test with cynomolgus monkey GPRC5D, this molecule yielded an EC50 of 2.71 nM and a Max of 9790.

B3: Chi-24 (antibody, human IgG1, kappa, L234A L235A, V domains shown)
VH: QVQLQQSDAELVKPGGSVKISCKVSGYTFTDYPIHWMKQRPEQGLEWMGYVFPRDGSTKYNEKFRVKATWTADKSSSTVYMQLNSLTSDDSAVYFCSRELTAYWGQGTTLRVSS
VL: not shown
For B3, in the test with human GPRC5D, the EC50 is 2.81 nM and the Max stood at 5000. In the test with cynomolgus monkey GPRC5D, the response was half-maximal at 3.96 nM (EC50) and the Max was 9630.

B4: F11-18 (bispecific antibody)
heavy: not shown
light: DVVLTQTPLTLSVTIGQPASISCKSSQSLLHSNGKTYLNWLLQRPGQSPRRLIYLVSKLDSGVPDRFAGSGSGTDFTLKITRVEAEDLGVYYCAQGTHFPRTFGGGSKLEIRRTVAAPSVFIFPPSDEQLKSGTASVVCLLNNFYPREAKVQWKVDNALQSGNSQESVTEQDSKDSTYSLSSTLTLSKADYEKHKVYACEVTHQGLSSPVTKSFNRGEC
notes: formula 11 with Chi-24 variable regions
For B4, in the test with human GPRC5D, the EC50 worked out at 1.57 nM and the Max turned out to be 1300.

B5: F11-17 (bispecific antibody)
heavy: not shown
light: DVVMTQTPLSLSVSLGDQASISCRSSQSLVHSNGNTYLYWYLQKPGQSPKLLIYKVSNRFSGVPDRFSGSGSGTDFTLKISRVEAEDLGVYFCSQSTHVPPLTFGAGTKLELKRTVAAPSVFIFPPSDEQLKSGTASVVCLLNNFYPREAKVQWKVDNALQSGNSQESVTEQDSKDSTYSLSSTLTLSKADYEKHKVYACEVTHQGLSSPVTKSFNRGEC
notes: formula 11 with Chi-1 variable regions
For B5, the EC50 with human GPRC5D stood at 0.31 nM; with cynomolgus monkey GPRC5D it was 0.35 nM. Further, the results for the Max with human GPRC5D and in the test with cynomolgus monkey GPRC5D were 1.82 and 0.98, respectively.

B6: Chi-45 (antibody, human IgG1, kappa, L234A L235A, V domains shown)
VH: EVKLVESGGGLVQPGDFLSLSCAASGFTFTDYYLSWVRQPPGKALEWLAFIRNRAKGYTTEYSASVKGRFTISRDNSQSILYLQMNVLRAEDSATYYCARMGGKGWHFDVWGTGTTVTVSS
VL: DVLMTQSPLSLPVSLGDQASISCRSSQSIVHSNGNTYLEWYLQKPGQSPKLLIYKVSNRFSGVPDRFFGSGSGTDFTLKINRVEAEDLGVYYCFQGSHVPFTFGGGTKLEIKR
Take B6: in the test with human GPRC5D, the EC50 came to 1.64 nM and the Max was 1250. In the test with cynomolgus monkey GPRC5D, this molecule came in with an EC50 of 1.91 nM and a Max of 14600.

B7: JNJ-64407564 (bispecific antibody, human IgG4 S228P, kappa, lambda, F234A L235A)
heavy 1: not shown
light 1: DIQMTQSPSSLSASVGDRVTITCKASQNVATHVGWYQQKPGKAPKRLIYSASYRYSGVPSRFSGSGSGTEFTLTISNLQPEDFATYYCQQYNRYPYTFGQGTKLEIKRTVAAPSVFIFPPSDEQLKSGTASVVCLLNNFYPREAKVQWKVDNALQSGNSQESVTEQDSKDSTYSLSSTLTLSKADYEKHKVYACEVTHQGLSSPVTKSFNRGEC
heavy 2: EVQLVESGGGLVQPGGSLRLSCAASGFTFNTYAMNWVRQAPGKGLEWVARIRSKYNNYATYYAASVKGRFTISRDDSKNSLYLQMNSLKTEDTAVYYCARHGNFGNSYVSWFAYWGQGTLVTVSSASTKGPSVFPLAPCSRSTSESTAALGCLVKDYFPEPVTVSWNSGALTSGVHTFPAVLQSSGLYSLSSVVTVPSSSLGTKTYTCNVDHKPSNTKVDKRVESKYGPPCPPCPAPEAAGGPSVFLFPPKPKDTLMISRTPEVTCVVVDVSQEDPEVQFNWYVDGVEVHNAKTKPREEQFNSTYRVVSVLTVLHQDWLNGKEYKCKVSNKGLPSSIEKTISKAKGQPREPQVYTLPPSQEEMTKNQVSLTCLVKGFYPSDIAVEWESNGQPENNYKTTPPVLDSDGSFLLYSKLTVDKSRWQEGNVFSCSVMHEALHNHYTQKSLSLSLGK
light 2: QTVVTQEPSLTVSPGGTVTLTCRSSTGAVTTSNYANWVQQKPGQAPRGLIGGTNKRAPGTPARFSGSLLGGKAALTLSGVQPEDEAEYYCALWYSNLWVFGGGTKLTVLGQPKAAPSVTLFPPSSEELQANKATLVCLISDFYPGAVTVAWKADSSPVKAGVETTTPSKQSNNKYAASSYLSLTPEQWKSHRSYSCQVTHEGSTVEKTVAPTECS
notes: anti-GPRC5D arm and anti-CD3E arm; also called positive control molecule
For B7, in the test with cynomolgus monkey GPRC5D, the response was half-maximal at 0.06 nM (EC50) and the Max was determined as 0.26.

B8: F4-1 (bispecific antibody)
heavy 1: not shown
light 1: not shown
heavy 2: EVQLVESGGGLVQPGGSLRLSCAASGFTFTDYYLSWVRQAPGKGLEWVAFIRNRAKGYTTEYSASVKGRFTISRDNAKNSLYLQMNSLRAEDTAVYYCARMGGKGWHFDVWGQGTTVTVSSASTKGPSVFPLAPSSKSTSGGTAALGCLVKDYFPEPVTVSWNSGALTSGVHTFPAVLQSSGLYSLSSVVTVPSSSLGTQTYICNVNHKPSNTKVDKKVEPKSCDKTHTCPPCPAPEAAGGPSVFLFPPKPKDTLMISRTPEVTCVVVDVSHEDPEVKFNWYVDGVEVHNAKTKPREEQYNSTYRVVSVLTVLHQDWLNGKEYKCKVSNKALPAPIEKTISKAKGQPREPQVCTLPPSRDELTKNQVSLSCAVKGFYPSDIAVEWESNGQPENNYKTTPPVLDSDGSFFLVSKLTVDKSRWQQGNVFSCSVMHEALHNHYTQKSLSLSPGK
light 2: DVVMTQSPLSLPVTPGEPASISCRSSQSIVHSNRNTYLEWYLQKPGQSPKLLIYKVSNRFSGVPDRFFGSGSGTDFTLKINRVEAEDVGVYYCFQGSHVPFTFGGGTKVEIKRTVAAPSVFIFPPSDEQLKSGTASVVCLLNNFYPREAKVQWKVDNALQSGNSQESVTEQDSKDSTYSLSSTLTLSKADYEKHKVYACEVTHQGLSSPVTKSFNRGEC
notes: formula 4
In the test with human GPRC5D, B8 came in with an EC50 of 16.9 nM and a Max of 13800. Besides, in the test with cynomolgus monkey GPRC5D, a half-maximal effect (EC50) was put at 3.28 nM and the Max was 76600.

B9: F4-2 (bispecific antibody)
heavy 1: not shown
light 1: not shown
heavy 2: EVQLVESGGGLVQPGGSLRLSCAASGFTFTDYYLSWVRQAPGKGLEWVAFIRNRAKGYTTEYSASVKGRFTISRDNSKNSLYLQMNSLRAEDTAVYYCARMGGKGWHFDVWGQGTTVTVSSASTKGPSVFPLAPSSKSTSGGTAALGCLVKDYFPEPVTVSWNSGALTSGVHTFPAVLQSSGLYSLSSVVTVPSSSLGTQTYICNVNHKPSNTKVDKKVEPKSCDKTHTCPPCPAPEAAGGPSVFLFPPKPKDTLMISRTPEVTCVVVDVSHEDPEVKFNWYVDGVEVHNAKTKPREEQYNSTYRVVSVLTVLHQDWLNGKEYKCKVSNKALPAPIEKTISKAKGQPREPQVCTLPPSRDELTKNQVSLSCAVKGFYPSDIAVEWESNGQPENNYKTTPPVLDSDGSFFLVSKLTVDKSRWQQGNVFSCSVMHEALHNHYTQKSLSLSPGK
light 2: DVVMTQSPLSLPVTPGEPASISCRSSQSIVHSNRNTYLEWYLQKPGQSPKLLIYKVSNRFSGVPDRFFGSGSGTDFTLKINRVEAEDVGVYYCFQGSHVPFTFGGGTKVEIKRTVAAPSVFIFPPSDEQLKSGTASVVCLLNNFYPREAKVQWKVDNALQSGNSQESVTEQDSKDSTYSLSSTLTLSKADYEKHKVYACEVTHQGLSSPVTKSFNRGEC
notes: formula 4
Regarding B9, in the test with human GPRC5D, the EC50 was 15.8 nM and the Max worked out at 13700. Also, in the test with cynomolgus monkey GPRC5D, the EC50 is 3.45 nM and the Max stood at 75200.

B10: F4-3 (bispecific antibody)
heavy 1: not shown
light 1: not shown
heavy 2: EVQLVESGGGLVQPGGSLRLSCAASGFTFTDYYLSWVRQAPGKGLEWVAFIRNRAKGYTTEYSASVKGRFTISRDNAQNSLYLQMNSLRAEDTAVYYCARMGGKGWHFDVWGQGTTVTVSSASTKGPSVFPLAPSSKSTSGGTAALGCLVKDYFPEPVTVSWNSGALTSGVHTFPAVLQSSGLYSLSSVVTVPSSSLGTQTYICNVNHKPSNTKVDKKVEPKSCDKTHTCPPCPAPEAAGGPSVFLFPPKPKDTLMISRTPEVTCVVVDVSHEDPEVKFNWYVDGVEVHNAKTKPREEQYNSTYRVVSVLTVLHQDWLNGKEYKCKVSNKALPAPIEKTISKAKGQPREPQVCTLPPSRDELTKNQVSLSCAVKGFYPSDIAVEWESNGQPENNYKTTPPVLDSDGSFFLVSKLTVDKSRWQQGNVFSCSVMHEALHNHYTQKSLSLSPGK
light 2: DVVMTQSPLSLPVTPGEPASISCRSSQSIVHSNRNTYLEWYLQKPGQSPKLLIYKVSNRFSGVPDRFFGSGSGTDFTLKINRVEAEDVGVYYCFQGSHVPFTFGGGTKVEIKRTVAAPSVFIFPPSDEQLKSGTASVVCLLNNFYPREAKVQWKVDNALQSGNSQESVTEQDSKDSTYSLSSTLTLSKADYEKHKVYACEVTHQGLSSPVTKSFNRGEC
notes: formula 4
Take B10: in the test with human GPRC5D, the EC50 came to 16.1 nM and the Max amounted to 13800. In the test with cynomolgus monkey GPRC5D, this molecule gave an EC50 of 3.83 nM and a Max of 76100.

B11: Chi-1 (antibody, human IgG1, kappa, L234A L235A, V domains shown)
VH: EVQLVESGGGLVKPGGSLKLSCAASGFTFSDYGMHWVRQAPEKGLEWVAFISSGSSTIYYADTVKGRFTISRDNAKNTLFLQMTSLRSEDTAIYYCTRLGPNWYFDVWGTGTTVTVSS
VL: DVVMTQTPLSLSVSLGDQASISCRSSQSLVHSNGNTYLYWYLQKPGQSPKLLIYKVSNRFSGVPDRFSGSGSGTDFTLKISRVEAEDLGVYFCSQSTHVPPLTFGAGTKLELKR
For the molecule B11, in the test with human GPRC5D, the EC50 was determined as 1.43 nM and the Max came to 5210. In the test with cynomolgus monkey GPRC5D, this molecule returned a half-maximal effective concentration (EC50) of 1.2 nM and a Max of 7880.
